# Patent US20220194996A1
# B1: Pro(Flex2)-6C fusion protein, produced in L. lactis (protein)
# chain: EYVDEKERQGEIYPFGDEEEKDEGGESFTYEKSEVDKTDLFKFIEGGEGDDVYKVDGSKVLLDDDTISRVSKKHTARDGEYGEYGEAVEDGENVIKIIRSVLQSGALPSVGVDELDKIDLSYETTESGDTAVSEDSYDKYASNNTNKEGGGGSGGGGSGGGGSEKKVIHGCNFSSNVSSKHTFTDSLDISLVDDSAHISCNVHLSEPKYNHLVGLNCPGDIIPDCFFQVYQPESEELEPSNIVYLDSQINIGDIEYYEDAEGDDKIKLFGIVGSIPKTTSFTCICKKDKKSAYMTVTIDSA
# B2: Pro(CsLNK)-6C fusion protein, produced in L. lactis (protein)
# chain: EYVDEKERQGEIYPFGDEEEKDEGGESFTYEKSEVDKTDLFKFIEGGEGDDVYKVDGSKVLLDDDTISRVSKKHTARDGEYGEYGEAVEDGENVIKIIRSVLQSGALPSVGVDELDKIDLSYETTESGDTAVSEDSYDKYASNNTNKENMPNDPNRNVDENANANSAVKNNNNEEEKKVIHGCNFSSNVSSKHTFTDSLDISLVDDSAHISCNVHLSEPKYNHLVGLNCPGDIIPDCFFQVYQPESEELEPSNIVYLDSQINIGDIEYYEDAEGDDKIKLFGIVGSIPKTTSFTCICKKDKKSAYMTVTIDSA
# B3: Pro(Sol)-6C fusion protein, produced in L. lactis (protein)
# chain: EYVDEKERQGEIYPFGDEEEKDEGGESFTYEKSEVDKTDLFKFIEGGEGDDVYKVDGSKVLLDDDTISRVSKKHTARDGEYGEYGEAVEDGENVIKIIRSVLQSGALPSVGVDELDKIDLSYETTESGDTAVSEDSYDKYASNNTNKEKESGSVSSEQLAQFRSLDEKKVIHGCNFSSNVSSKHTFTDSLDISLVDDSAHISCNVHLSEPKYNHLVGLNCPGDIIPDCFFQVYQPESEELEPSNIVYLDSQINIGDIEYYEDAEGDDKIKLFGIVGSIPKTTSFTCICKKDKKSAYMTVTIDSA
# Molecular target: rat mAb 45.1 (against Pfs48/45 conformational epitope I)
row,Binder,% of folding
1,B1,100%
2,B2,75%
3,B3,90%
